For the test, the target named is T1, GFP-tagged NFR5 (LjNFR5-sfGFP) (Lotus japonicus).
T1 construct: Full-length receptor with C-terminal sfGFP; In the co-IP it was expressed from pLjUbi in N. benthamiana leaves and extracted with detergent; In nodulation assays it was expressed from the native Nfr5 promoter in roots; also called NFR5-GFP
The test is described as follows: co-immunoprecipitation (RFP-Trap) from N. benthamiana leaf extracts, anti-GFP and anti-mCherry immunoblot (FIG. 1J). The protocol: The assay was performed as in Arora et al. (The Plant Cell 34, 7, 2806 (2022)). In short, N. benthamiana leaves were crushed to a powder in liquid nitrogen using a mortar and pestle, then incubated for 1 hour at 4° C. on a rotor in buffer containing 50 mM Tris-HCl (pH 7.5), 150 mM NaCl, 10% (v/v) glycerol, 2 mM EDTA, 5 mM DTT, 1 mM phenylmethylsulfonyl fluoride, Protease Inhibitor Cocktail (Sigma-Aldrich), and 1% (v/v) IGEPAL® CA-630 (Alfa Aesar) in a ratio of 2 mL/g tissue. Extracts were centrifuged at 4° C. and 4700 rpm for 30 minutes. Supernatants were directly incubated with RFP-Trap® Magnetic Agarose beads (ChromoTek®) overnight at 4° C. The beads were washed five times in buffer containing 50 mM Tris-HCl (pH 7.5), 150 mM NaCl, 10% (v/v) glycerol, 2 mM EDTA, Protease Inhibitor Cocktail (Sigma-Aldrich), and 0.5% (v/v) IGEPAL® CA-630 (Alfa Aesar) on ice. To release the proteins, 50 μL of SDS sample buffer (25 mM Tris-HCl, pH 6.8, 10% glycerol, 2% SDS, 0.2% 2-mercaptoethanol, 0.6 mg/mL Bromophenol blue) was added and samples were heated for 5 minutes at 95° C.
Proteins were separated on 12% SDS-polyacrylamide gels at 120 V for 3 h. Blotting to PVDF membranes (Merck) was done by wet transfer for 2 hours at 90 V. Membranes were blocked with 5% milk for 1 hour. […] Chemiluminescence was detected on a G-BOX (Syngene) using ECL Prime Western Blotting Detection Reagent (Cytiva).
(Immunoblotting shows a protein as a band on a membrane.)

This is an account of results in patent publication US20240200085A1 (AARHUS UNIVERSITET, published 2024).

T1 sequence (chain, as listed by the source limits assumed): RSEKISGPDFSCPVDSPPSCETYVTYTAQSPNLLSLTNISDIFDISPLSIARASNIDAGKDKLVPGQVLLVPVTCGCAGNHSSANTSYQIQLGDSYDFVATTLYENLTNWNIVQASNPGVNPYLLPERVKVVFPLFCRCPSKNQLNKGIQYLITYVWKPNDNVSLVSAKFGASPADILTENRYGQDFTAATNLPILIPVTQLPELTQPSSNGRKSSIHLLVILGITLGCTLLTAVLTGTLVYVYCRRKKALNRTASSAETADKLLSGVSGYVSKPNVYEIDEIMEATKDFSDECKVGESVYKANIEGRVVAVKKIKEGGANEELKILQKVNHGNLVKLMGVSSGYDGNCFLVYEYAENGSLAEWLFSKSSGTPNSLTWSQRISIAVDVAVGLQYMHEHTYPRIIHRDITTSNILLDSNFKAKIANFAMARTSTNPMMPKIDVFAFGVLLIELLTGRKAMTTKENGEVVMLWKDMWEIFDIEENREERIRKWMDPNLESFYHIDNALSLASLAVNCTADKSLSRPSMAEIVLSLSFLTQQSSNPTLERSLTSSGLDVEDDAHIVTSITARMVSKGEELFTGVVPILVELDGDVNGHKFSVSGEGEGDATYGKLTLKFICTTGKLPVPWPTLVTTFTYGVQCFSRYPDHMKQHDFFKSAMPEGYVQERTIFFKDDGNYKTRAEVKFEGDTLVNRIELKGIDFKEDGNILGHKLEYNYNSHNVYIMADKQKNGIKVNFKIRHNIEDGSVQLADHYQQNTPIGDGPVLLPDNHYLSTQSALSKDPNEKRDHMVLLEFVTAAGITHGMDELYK

B1: VHHLaG16m-tagged mCherry (mCherry_20linker_mutNbsfGFP-HA) (VHH)
VHH: QVQLVESGGRLVQAGDSLRLSCAASGRTWSTSAMAWFRQAPGREREFVAAITWWVGNTILGDSVKGRFTISRDRAKNTVDLQMDNLEPEDTAVYYCSARSRWYVLSVLRSVDSYDYWGQGTQVTVSS
notes: Construct EC32015, expressed in N. benthamiana leaves; LaG16 was engineered to carry three bulky tryptophan residues in the paratope; also called mCherry mutNb; mutated LaG16; not shown: mCherry red fluorescent protein (engineered); 20-residue linker ('20linker'); HA tag
B1: the binding result is “no binding”.
